From patent EP3741773A1 (City of Hope, dated 2020) come the findings set out here.

This assay addresses T1, meditope-enabled trastuzumab.
T1 construct: after it there are no differences from the human heavy chain of trastuzumab; Full IgG was expressed; Labelled with Alexa dyes in FACS; also called TM; trastuzumab memab
Kind of assay: SPR. (In general: Surface plasmon resonance follows binding to a sensor surface in real time, without labels.)

T1 sequence (heavy, as listed by the source, chain 1 of 2): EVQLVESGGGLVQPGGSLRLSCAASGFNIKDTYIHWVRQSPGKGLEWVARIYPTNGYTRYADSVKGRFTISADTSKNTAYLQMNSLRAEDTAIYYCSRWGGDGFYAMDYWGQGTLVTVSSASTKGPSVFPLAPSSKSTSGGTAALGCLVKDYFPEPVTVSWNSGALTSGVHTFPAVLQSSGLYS
T1 sequence (light, as listed by the source, chain 2 of 2): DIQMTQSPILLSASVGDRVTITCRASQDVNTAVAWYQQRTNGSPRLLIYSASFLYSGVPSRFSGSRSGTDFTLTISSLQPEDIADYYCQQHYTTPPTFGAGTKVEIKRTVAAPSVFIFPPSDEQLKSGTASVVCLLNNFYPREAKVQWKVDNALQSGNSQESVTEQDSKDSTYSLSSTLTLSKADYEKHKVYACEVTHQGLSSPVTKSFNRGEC

B1: Protein L (other)
chain: SEVTIKVNLIFADGKIQTAEFKGTFEEATAEAYRYAALLAKVNGEYTADLEDGGNHMNIKFAG
notes: also called Protein L (only); PpL
Turning to B1, the Kd (commonly the constant that tells how readily two partners part at equilibrium) was ~500 nM.
